# According to patent US20030165811A1, “Method for determining the activity of ornithine decarboxylase and for identifying effectors of ornithine decarboxylase activity” (priority 2001, published 2003):
# B1: antizyme 3: human ODC antizyme 3 (Acc. No. AF175296), expressed in yeast from plasmid (protein, UniProt Q9UMX2 1-235, looked up)
# Ornithine decarboxylase …: MPCKRCRPSVYSLSYIKRGKTRNYLYPIWSPYAYYLYCYKYRITLREKMLPRCYKSITYKEEEDLTLQPRSCLQCSESLVGLQEGKSTEQGNHDQLKELYSAGNLTVLATDPLLHQDPVQLDFHFRLTSQTSAHWHGLLCDRRLFLDIPYQALDQGNRESLTATLEYVEEKTNVDSVFVNFQNDRNDRGALLRAFSYMGFEVVRPDHPALPPLDNVIFMVYPLERDVGHLPSEPP
# B2: antizyme inhibitor: human antizyme inhibitor, binds antizyme and releases ODC; full-length clone from human liver cDNA, expressed in yeast (protein, UniProt O14977 1-448, looked up)
# chain: MKGFIDDANYSVGLLDEGTNLGNVIDNYVYEHTLTGKNAFFVGDLGKIVKKHSQWQNVVAQIKPFYTVKCNSAPAVLEILAALGTGFACSSKNEMALVQELGVPPENIIYISPCKQVSQIKYAAKVGVNILTCDNEIELKKIARNHPNAKVLLHIATEDNIGGEEGNMKFGTTLKNCRHLLECAKELDVQIIGVKFHVSSACKESQVYVHALSDARCVFDMAGEIGFTMNMLDIGGGFTGTEFQLEEVNHVISPLLDIYFPEGSGVKIISEPGSYYVSSAFTLAVNIIAKKVVENDKFPSGVEKTGSDEPAFMYYMNDGVYGSFASKLSEDLNTIPEVHKKYKEDEPLFTSSLWGPSCDELDQIVESCLLPELNVGDWLIFDNMGADSFHEPSAFNDFQRPAIYYMMSFSDWYEMQDAGITSDSMMKNFFFVPSCIQLSQEDSFSAEA
# modifications: full-length
# notes: full-length clone from human liver cDNA, expressed in yeast
# B3: antizyme 2: human ODC antizyme 2 (Acc. No. AF057297), expressed in yeast from plasmid (protein, UniProt O95190 1-189, looked up)
# Ornithine decarboxylase …: MINTQDSSILPLSNCPQLQCCRHIVPGPLWCSDAPHPLSKIPGGRGGGRDPSLSALIYKDEKLTVTQDLPVNDGKPHIVHFQYEVTEVKVSSWDAVLSSQSLFVEIPDGLLADGSKEGLLALLEFAEEKMKVNYVFICFRKGREDRAPLLKTFSFLGFEIVRPGHPCVPSRPDVMFMVYPLDQNLSDED
# How the values were obtained:
# [1] = test system: ornithine decarboxylase (ODC); assay: Antizyme assay: spot test growth of ODC-knockout yeast complemented with human ODC on polyamine-free medium; type: cell-based; conditions: for inhibition of ODC activity (growth inhibition of the yeast cells): antizyme expressed from yeast promoters ADH, GaI1 or GPD in Y15034 with p413GaIL-ODC, PFSC plate, 30° C.
# Procedure: The polyamine-dependent yeast strain Y15034 (ODC-knockout) and the corresponding wild-type strain Y10000 were each transformed by the Li acetate method with the plasmid p413GaIL-ODC. In addition, each of the 12 antizyme expression plasmids described in Example 2 and, as control, corresponding blank plasmids were cotransformed.
# (§1) The transformants were plated out on Synthetic Complete (SC) medium (His-, Ura-,2% glucose, Difco). For each transformation, an overnight culture was inoculated in PFSC medium (His-, Ura-, 2% glucose). This was used firstly to carry out a spot test, i.e. the yeasts were adjusted to OD600 3.0 and subjected to 10-fold dilutions (5×). 2 μl of each dilution, starting with OD600 3.0, were placed as a drop on a PFSC plate (His-, Ura-, 2% galactose/raffinose [1:1]), and the plates were incubated at 30° C.
# antizyme = assay: Antizyme inhibitor assay: spot test growth of yeast co-expressing ODC, antizyme and AZI on polyamine-free medium; type: cell-based, human; conditions: AZI expressed from ADH, GaIL or GPD promoter (p415); PFSC plate, 30° C.
# Procedure: The yeasts prepared in Example 6 were each additionally cotransformed with the 3 AZI expression plasmids (p415ADH-AZI, p415GaIL-AZI and p415GPD-AZI) described in Example 3 and with the corresponding blank plasmids.
# as §1, with “Ura-,Leu-, 2% glucose).” for “Ura-,2% glucose, Difco).”, “Ura-, Leu-,” for “Ura-,”, “with an” for “with”, “3.0” for “3.0,”
# Chain of ornithine decarboxylase (ODC) (P11926 whole entry): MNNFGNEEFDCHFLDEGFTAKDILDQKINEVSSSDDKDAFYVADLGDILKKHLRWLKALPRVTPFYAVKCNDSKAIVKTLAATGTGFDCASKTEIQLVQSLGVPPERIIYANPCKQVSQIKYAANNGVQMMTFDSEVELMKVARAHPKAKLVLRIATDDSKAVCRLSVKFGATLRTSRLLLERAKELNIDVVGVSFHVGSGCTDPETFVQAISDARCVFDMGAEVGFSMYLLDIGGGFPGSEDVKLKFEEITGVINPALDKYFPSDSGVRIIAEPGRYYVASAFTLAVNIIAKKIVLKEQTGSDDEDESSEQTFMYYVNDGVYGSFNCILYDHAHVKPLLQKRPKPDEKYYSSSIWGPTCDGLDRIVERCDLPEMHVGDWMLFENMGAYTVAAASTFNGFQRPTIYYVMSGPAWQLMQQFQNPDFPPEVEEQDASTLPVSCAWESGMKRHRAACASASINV
Molecule,inhibition of ODC activity (growth inhibition of the yeast cells) [1],other results
"NCCCCN [putrescine, reference compound]",–,abolition of the antizyme-related growth inhibition ([1]; addition of putrescine to polyamine-free medium): abolish the growth inhibition
"Antizyme 1: human ODC antizyme 1 (Acc. No. D87914), protein that binds and inhibits ODC, expressed in yeast from plasmid",achieved inhibition of ODC activity only with the strong GPD promoter,–
B1,also by the GaI1 promoter,–
B2,–,abolition of the ODC inhibition caused by antizyme (antizyme): the ODC inhibition caused by antizyme was abolished
B3,effective inhibition of ODC activity was made possible also by the ADH promoter,–
